Where a chain is given by its changes, count along the chain named. Names may count otherwise.
Biological target: V5-LC3, Q9GZQ8
Assay: co-immunoprecipitation (Flag IP), western blot band quantification
Conditions: chain shown with the change; HEK293T cells expressing V5-LC3 and Flag-RhoC; n = 3; parent: est. 4.6; read off a plot; scale: relative IP LC3-II protein level

B1: Flag-tagged RhoC (wild type), P08134 F154A; L157A (protein)
chain: MAAIRKKLVIVGDGACGKTCLLIVFSKDQFPEVYVPTVFENYIADIEVDGKQVELALWDTAGQEDYDRLRPLSYPDTDVILMCFSIDSPDSLENIPEKWTPEVKHFCPNVPIILVGNKKDLRQDEHTRRELAKMKQEPVRSEEGRDMANRISAAGYAECSAKTKEGVREVFEMATRAGLQVRKNKRRRGCPIL
- response: 1.2

B2: Flag-tagged RhoC (wild type), P08134 Y66A; L69A (protein)
chain: B1 chain with Y66A, L69A, A154F, A157L
- response: 2.1

B3: Flag-tagged RhoC (wild type), P08134 F30A; V33A (protein)
chain: B1 chain with F30A, V33A, A154F, A157L
- response: 4.7

B4: Flag-tagged RhoC (wild type), P08134 Y66A; L69A; F154A; L157A (protein)
chain: B1 chain with Y66A, L69A
- response: 1

Reference: PMC11861591
